Experiment [1] concerns the target T1, Human recombinant FGF2 (Fibroblast growth factor-2) (human, UniProt P09038 134-288, limits assumed). The experiment in a line: solid phase assay: peptide-coated wells (200 µg/well), FGF2 80 nM, detection with anti-FGF2 antibody. On the procedure:
(§1) The response was recorded at the end of injection and plotted as a function of the antagonist concentration.
(§2) Then, wells were overcoated for 2 hours at room temperature with 5% dry milk in coating buffer. […] Then, 100 μl/well of the chromogen substrate 2,29-azinobis(3-ethylbenzthiazolinesulfonic acid) were added. Absorbance values were read at 405 nm in an automatic ELISA reader.

The target in experiment [2] is T1, Human recombinant FGF2 (Fibroblast …). Briefly: SPR competition: competitor with FGF2 0.8 µM in the mobile phase over immobilized PTX3. An excerpt: (§3) A BIAcore X apparatus (BIAcore Inc, Piscataway, N.J.) was used.
Experiment [3] has the same target. Briefly: SPR competition (printed as ID50): competitor with FGF2 0.8 µM in the mobile phase over immobilized PTX3. On the procedure: as §1, §3
Experiment [4] shares this target. Briefly: solid phase assay: peptide-coated wells (200 µg/well), FGF2 80 nM, detection with anti-FGF2 antibody. On the procedure: as §2
The source holds these as a separate data set.

Experiment [5] has the same target. Briefly: SPR competition: FGF2 0.8 µM over immobilized PTX3 with the peptide in the mobile phase. On the procedure: The response was recorded at the end of injection and plotted as a function of the antagonist concentration. […] The response was recorded at the end of injection and plotted as a function of the antagonist concentration.
as §3

T1 sequence (P09038 134-288 limits assumed): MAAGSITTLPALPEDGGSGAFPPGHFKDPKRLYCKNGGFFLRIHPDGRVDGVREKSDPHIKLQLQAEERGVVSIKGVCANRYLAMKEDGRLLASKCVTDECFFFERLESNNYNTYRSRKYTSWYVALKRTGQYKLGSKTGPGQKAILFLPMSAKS

For the molecule RGELQRLREELGRLAESLAR [synthetic peptide PTX3(82-101)], the binding result in experiment [1] is “no binding (tested: FGF2 80 nM)”.

B1: synthetic peptide PTX3(82-110) (peptide)
peptide: RGELQRLREELGRLAESLARPCAPGAPAE
notes: also called parental peptide PTX3(82-110)
With B1, in experiment [2], the “fold lower potency than free full length PTX3” value was found to be 30 fold. Besides, the half-maximal inhibitory concentration (IC50) in experiment [3] turned out to be 30 µM.
In the case of DKLFIMLENSQMRERMLLQATDDVLRGEL [synthetic peptide PTX3(57-85)], the binding result in experiment [4] is recorded as “no binding (tested: FGF2 80 nM)”.
As to RGELQRLREELGRLA [synthetic peptide PTX3(82-96)], the binding result in experiment [5] is recorded as “no binding (tested: about 3000 µM)”.
DNEIDNGLHPTEDPTPCDCGQEHSEWDKLF [synthetic peptide PTX3(31-60)]: in experiment [4], the binding result is given as “no binding (tested: FGF2 80 nM)”.

Values taken from patent US20090215689A1 (TECNOGEN S P A, published 2009).
